Experiment [1] addresses T1, human CC chemokine receptor 4 (CCR4) (human, UniProt P51679 1-360).
T1 construct: whole, on cells; Always presented on cells; also called CD194; human CCR4
T1 sequence (looked up): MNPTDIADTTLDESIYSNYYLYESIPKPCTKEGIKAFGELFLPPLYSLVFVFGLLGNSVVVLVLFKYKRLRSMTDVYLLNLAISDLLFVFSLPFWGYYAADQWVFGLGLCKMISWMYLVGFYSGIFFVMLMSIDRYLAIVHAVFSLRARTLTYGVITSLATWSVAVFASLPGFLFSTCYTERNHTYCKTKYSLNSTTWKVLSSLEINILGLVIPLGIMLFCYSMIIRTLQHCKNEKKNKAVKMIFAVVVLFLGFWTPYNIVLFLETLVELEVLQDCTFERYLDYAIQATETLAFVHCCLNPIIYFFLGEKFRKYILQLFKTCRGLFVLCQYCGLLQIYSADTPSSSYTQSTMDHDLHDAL
The experiment is described as follows: flow cytometry competition on CCRF-CEM cells; unlabelled IgG titrated, competitor 0.7 nM biotinylated IgG 9E. The method, then: Further competition experiments were carried out to assess whether or not the test antibodies recognise the same or overlapping epitopes, and to determine their relative affinities for CCR4. Antibodies 9E10J, 9E and KM3060var were tested using labelled 9E as a competitor.
(§1) DT40 and CCRF-CEM cells were cultivated as described in Example 2. The cells were harvested from culture flasks, washed 2 times with PBS (400×g, 5 min, 4° C.) and resuspended in PBS containing 0.2% BSA and 0.09% NaN3. 1×10^5 cells per well were aliquoted into V-shaped 96-well plates (Griner Bio-One, Frikenhausen, Germany). Cells were centrifuged (400×g, 5 min, 4° C.) and resuspended in 50 μl IgG 9E10J or KM3060var (dilution series starting at 5 μg/ml) mixed with biotinylated competitor antibody 9E (0.1 or 0.5 μg/ml). The cells were incubated for 2 hours at 4° C., mixing with a pipette every 45 min. The cells were washed three times with 150 μl PBS with 0.2% BSA and 0.09% NaN3 and stained with 3 μg/ml streptavidin PE (BD Biosciences) for 45 minutes at 4° C. Cells were washed, resuspended in 200 μl PBS with 0.2% BSA and 0.09% NaN3, and transferred to a U-shaped 96 well Costar (Corning, Schiphol-Rijik, The Netherlands) plate for flow cytometry using an FACS Canto II flow cytometer (BD Biosciences, Heidelberg, Germany).
In general terms: A flow cytometer gives signals particle by particle.

For experiment [2], the target named is T1, human CC chemokine receptor 4 (CCR4). The experiment is described as follows: calculated from the IC50; DT-40-CCR4+ cells, competitor 0.7 nM biotinylated IgG 9E. The method, then:
as §1

Experiment [3] has the same target. The experiment is described as follows: flow cytometry, IgG titration on CCRF-CEM cells, anti-human-PE, MFI.
The target is the same in experiment [4]. The experiment is described as follows: flow cytometry competition; antibody titrated, competitor biotinylated TARC; cell line not given. The method, then: The cells were harvested from culture flasks, washed 2 times with PBS (400×g, 5 min, 4° C.) and resuspended in PBS containing 0.2% BSA and 0.09% NaN3. 1×10^5 cells per well were aliquoted into V-shaped 96-well plates (Greiner Bio-One, Frikenhausen, Germany). Cells were centrifuged (400×g, 5 min, 4° C.) and resuspended in 50 μl IgG, single chain or unlabeled ligand (1:10 dilution series starting on 100/500/26, 4 μg/ml) mixed with a fixed concentration of biotinylated ligand (10 or 20 nM, see legend to FIG. 24). The cells were incubated for 2 hours at 4° C. and mixed with a pipette every 45 min. The cells were washed three times with 150 μl PBS with 0.2% BSA and 0.09% NaN3 and stained with 3 μg/ml streptavidin PE (BD Biosciences) for 45 minutes at 4° C. Cells were washed, resuspended in 200 μl PBS with 0.2% BSA and 0.09% NaN3, and transferred to a U-shaped 96 well Costar (Corning, Schiphol-Rijik, The Netherlands) plate for flow cytometry using an FACS Canto II flow cytometer (BD Biosciences, Heidelberg, Germany). […] Apparent binding affinities (KD) were calculated according to the following equation derived from previously described methods (Kipriyanov et al, 1997b; Schodin & Kranz, 1993): […]

The target is the same in experiment [5]. Kind of experiment: flow cytometry, IgG titration on CCR4+ DT40 cells; one site-specific binding fit (Prism). The method, then: The IgG forms of antibodies 17G, 9E and KM3060var using various CCR4⁺ cell types were used (see Example 2).
(§2) For the flow cytometry experiments, the cells were harvested from the culture flasks, washed 2 times with PBS, re-suspended in PBS with 0.2% BSA and 0.09% NaN₃ and finally aliquoted 1×10⁵ cells per well into V-shaped 96-well plates (Greiner Bio-One, Frickenhausen, Germany). Cells were centrifuged at 400×g for 5 min and then incubated at 4° C. for 45 min with different antibody dilutions.
(§3) After washing with PBS with 0.2% BSA and 0.09% NaN₃, the cells were stained with 10 μg/ml of RPE-conjugated goat anti-human IgG (AbDSerotec, Düsseldorf, Germany) for 30 minutes at 4° C. The stained cells were washed, re-suspended in 200 μl PBS with 0.2% BSA and 0.09% NaN₃ and transferred to a U-shaped 96-well plate (Corning, Schiphol-Rijk, The Netherlands) for acquisition on EasyCyte flow cytometer (Guava Technologies, Hayward, Calif., USA).

Experiment [6] shares this target. Kind of experiment: flow cytometry, IgG titration on CCRF-CEM cells (natural CCR4+), triplicates, RPE goat anti-human IgG, Median (YLW-HLog).
Source text: As a positive control, in-house cloned and expressed KM3060var IgG which is specific for an epitope present in positions 2-29 in N-terminal part of human CCR4 (EP1270595) was used. An anti-GFP antibody (raised against the green fluorescent protein) or the anti-VZV antibody (raised against Varicella zoster virus) were used as negative controls (anti-GFP both as scFv and IgG, while anti-VZV only as scFv).
as §2, §3

For experiment [7] the target is unchanged. The experiment is described as follows: calculated from the IC50 (KD=IC50/(1+[bio-IgG 9E]/KD 9E)); DT-40-CCR4+ cells, competitor 3.3 nM biotinylated IgG 9E. The protocol:
as §1

Experiment [8] has the same target. The experiment is described as follows: cell-based or functional assay.

Substitutions are numbered along the chain they refer to.

B1: 9E10J IgG (full length human IgG1, lambda) (antibody, V domains shown)
VH: QVQLVQSGAEVKKPGSSVKVSCKASGGTFSSYAISWVRQAPGQGLEWMGGIIPIFGTANYAQKFQGRVTMTRDTSTSTVYMELSSLRSEDTAVYYCARRGGSYFDYWGQGTLVTVSS
VL: SYVLTQPPSASGTPGQSVTISCSGSTSNIGSHYVFWYQQLPGTAPRLLIYRNHQRPSGVPDRLSGSKSGTSASLAISGLRSEDEADYYCAVWDDTLSGWVFGGGTKLTVLG
notes: also called IgG 9E10J; unmodified 9E10J
As a reminder, the IC50 is the concentration that inhibits the measured activity by half. As usually defined, the Kd is the constant that tells how readily two partners part at equilibrium. The EC50 (read off the curve) is the concentration at which the effect is half-maximal. As for B1, the results for the IC50 in experiment [1] and in experiment [4] were 0.07 nM and 2.5 nM, respectively. Besides, the dissociation constant Kd in experiment [2] is 0.05 nM. Moreover, the “EC50 (read off the curve)” value in experiment [3] was approximately 0.1 nM.

B2: 9E IgG (full length human IgG1, lambda) (antibody, V domains shown)
VH: B1 VH with S31N, M70I, R72A, T74E, V79A
VL: B1 VL
notes: also called IgG 9E; IgG1 9E
B2: the results for the IC50 in experiment [1] and in experiment [4] were 0.38 nM and 12.5 nM, respectively. Besides, the Kd in experiment [2] was 0.39 nM; in experiment [5], 0.72 nM; in experiment [7], 2.1 nM. Further, the “EC50 (read off the curve)” value is approximately 0.3 nM in experiment [3] and approximately 0.4 nM in experiment [6]. The “ADCC of CCRF-CEM cells with human PBMCs, EC50” value in experiment [8] was 0.046 µg/mL. For the same molecule, the “Ca++ flux in CCRF-CEM cells: signal response to MDC stimulation (% of MDC in the absence of IgGs), IgG 10 µg/mL” value in experiment [8] came to 64%. For the same molecule, the “Ca++ flux in CCRF-CEM cells: signal response to TARC stimulation (% of TARC alone), IgG 10 µg/mL” value in experiment [8] turned out to be 3%.

(Values after patent US20160208003A1 (AFFITECH RESEARCH, published 2016).)
